Measurements published in the supplement of paper PMC9112550, “Optimization of the antimicrobial peptide Bac7 by deep mutational scanning” (BMC Biology, 2022).

Tested on: Escherichia coli TOP10
Test: shrunken log2 fold change of peptide-encoding DNA abundance (4.5 h post-induction vs induction); higher = less antimicrobial activity (less host growth inhibition)
Conditions: time post-induction: 4.5 h; library: site-saturation at positions 5, 18, 19, 20
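Also: peptides expressed intracellularly from a pBAD plasmid library in pooled LB shake-flask culture, induced with 0.3% L-arabinose, DNA abundance read by NGS, three biological replicates, DESeq2 with apeglm shrinkage.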

RRIRSRPPRLPRPRPRPRYNPRP
shrunken log2 fold change: -0.479

RRIRSRPPRLPRPRPRPRYTPRP
shrunken log2 fold change: -0.145

RRIRSRPPRLPRPRPRPSCFPRP
shrunken log2 fold change: -0.197

RRIRSRPPRLPRPRPRPSEAPRP
shrunken log2 fold change: 0.121

RRIRSRPPRLPRPRPRPSEPPRP
shrunken log2 fold change: -0.167

RRIRSRPPRLPRPRPRPSEYPRP
shrunken log2 fold change: -0.306

RRIRSRPPRLPRPRPRPSFEPRP
shrunken log2 fold change: 0.0257

RRIRSRPPRLPRPRPRPSFGPRP
shrunken log2 fold change: 0.176

RRIRSRPPRLPRPRPRPSFKPRP
shrunken log2 fold change: -0.542

RRIRSRPPRLPRPRPRPSFVPRP
shrunken log2 fold change: -0.705

RRIRSRPPRLPRPRPRPSKNPRP
shrunken log2 fold change: -0.306

RRIRSRPPRLPRPRPRPSLMPRP
shrunken log2 fold change: -0.201

RRIRSRPPRLPRPRPRPSNKPRP
shrunken log2 fold change: -0.413

RRIRSRPPRLPRPRPRPSNNPRP
shrunken log2 fold change: -0.66

RRIRSRPPRLPRPRPRPSPQPRP
shrunken log2 fold change: -0.108

RRIRSRPPRLPRPRPRPSQDPRP
shrunken log2 fold change: -0.296

RRIRSRPPRLPRPRPRPSQWPRP
shrunken log2 fold change: -0.176

RRIRSRPPRLPRPRPRPSRCPRP
shrunken log2 fold change: -0.134

RRIRSRPPRLPRPRPRPSRGPRP
shrunken log2 fold change: 0.483

RRIRSRPPRLPRPRPRPSRRPRP
shrunken log2 fold change: 0.208

RRIRSRPPRLPRPRPRPSSMPRP
shrunken log2 fold change: -0.422

RRIRSRPPRLPRPRPRPSSRPRP
shrunken log2 fold change: -0.288

RRIRSRPPRLPRPRPRPSSVPRP
shrunken log2 fold change: -0.354

RRIRSRPPRLPRPRPRPSVGPRP
shrunken log2 fold change: 0.0671

RRIRSRPPRLPRPRPRPSVQPRP
shrunken log2 fold change: -0.0563

RRIRSRPPRLPRPRPRPSVYPRP
shrunken log2 fold change: -0.81

RRIRSRPPRLPRPRPRPSWDPRP
shrunken log2 fold change: 0.364

RRIRSRPPRLPRPRPRPSYIPRP
shrunken log2 fold change: -1.48

RRIRSRPPRLPRPRPRPSYLPRP
shrunken log2 fold change: -0.707

RRIRSRPPRLPRPRPRPTACPRP
shrunken log2 fold change: 0.249

RRIRSRPPRLPRPRPRPTAFPRP
shrunken log2 fold change: 0.534

RRIRSRPPRLPRPRPRPTCEPRP
shrunken log2 fold change: 0.228

RRIRSRPPRLPRPRPRPTDGPRP
shrunken log2 fold change: -0.115

RRIRSRPPRLPRPRPRPTFCPRP
shrunken log2 fold change: 0.155

RRIRSRPPRLPRPRPRPTFTPRP
shrunken log2 fold change: -0.269

RRIRSRPPRLPRPRPRPTGLPRP
shrunken log2 fold change: 0.127

RRIRSRPPRLPRPRPRPTGNPRP
shrunken log2 fold change: -0.275

RRIRSRPPRLPRPRPRPTHLPRP
shrunken log2 fold change: 0.135

RRIRSRPPRLPRPRPRPTKGPRP
shrunken log2 fold change: -0.0226

RRIRSRPPRLPRPRPRPTKIPRP
shrunken log2 fold change: 0.00311

RRIRSRPPRLPRPRPRPTKQPRP
shrunken log2 fold change: 0.129

RRIRSRPPRLPRPRPRPTMKPRP
shrunken log2 fold change: -0.128

RRIRSRPPRLPRPRPRPTMNPRP
shrunken log2 fold change: -0.225

RRIRSRPPRLPRPRPRPTNWPRP
shrunken log2 fold change: 0.0446

RRIRSRPPRLPRPRPRPTPKPRP
shrunken log2 fold change: 0.697

RRIRSRPPRLPRPRPRPTPRPRP
shrunken log2 fold change: 0.843

RRIRSRPPRLPRPRPRPTPVPRP
shrunken log2 fold change: 0.381

RRIRSRPPRLPRPRPRPTQGPRP
shrunken log2 fold change: 0.36

RRIRSRPPRLPRPRPRPTSGPRP
shrunken log2 fold change: 0.194

RRIRSRPPRLPRPRPRPTTVPRP
shrunken log2 fold change: 0.14

RRIRSRPPRLPRPRPRPTTWPRP
shrunken log2 fold change: 0.053

RRIRSRPPRLPRPRPRPTYPPRP
shrunken log2 fold change: -0.0945

RRIRSRPPRLPRPRPRPTYWPRP
shrunken log2 fold change: -0.123

RRIRSRPPRLPRPRPRPVAKPRP
shrunken log2 fold change: 0.116

RRIRSRPPRLPRPRPRPVALPRP
shrunken log2 fold change: -0.0772

RRIRSRPPRLPRPRPRPVCIPRP
shrunken log2 fold change: -0.414

RRIRSRPPRLPRPRPRPVDPPRP
shrunken log2 fold change: 0.00726

RRIRSRPPRLPRPRPRPVFGPRP
shrunken log2 fold change: 0.0263

RRIRSRPPRLPRPRPRPVGKPRP
shrunken log2 fold change: -0.0806

RRIRSRPPRLPRPRPRPVHNPRP
shrunken log2 fold change: 0.0673

RRIRSRPPRLPRPRPRPVIDPRP
shrunken log2 fold change: -0.26

RRIRSRPPRLPRPRPRPVLKPRP
shrunken log2 fold change: -0.0386

RRIRSRPPRLPRPRPRPVNSPRP
shrunken log2 fold change: -0.365

RRIRSRPPRLPRPRPRPVPNPRP
shrunken log2 fold change: 0.105

RRIRSRPPRLPRPRPRPVPQPRP
shrunken log2 fold change: 0.0741

RRIRSRPPRLPRPRPRPVPRPRP
shrunken log2 fold change: 0.427

RRIRSRPPRLPRPRPRPVPSPRP
shrunken log2 fold change: 0.391

RRIRSRPPRLPRPRPRPVQCPRP
shrunken log2 fold change: -0.102

RRIRSRPPRLPRPRPRPVQFPRP
shrunken log2 fold change: 0.11

RRIRSRPPRLPRPRPRPVTAPRP
shrunken log2 fold change: -0.0769

RRIRSRPPRLPRPRPRPVTHPRP
shrunken log2 fold change: -0.152

RRIRSRPPRLPRPRPRPVTLPRP
shrunken log2 fold change: -0.167

RRIRSRPPRLPRPRPRPVVFPRP
shrunken log2 fold change: 0.11

RRIRSRPPRLPRPRPRPVVHPRP
shrunken log2 fold change: -0.126

RRIRSRPPRLPRPRPRPVWRPRP
shrunken log2 fold change: 0.33

RRIRSRPPRLPRPRPRPVWTPRP
shrunken log2 fold change: 0.241

RRIRSRPPRLPRPRPRPVYIPRP
shrunken log2 fold change: -0.124

RRIRSRPPRLPRPRPRPWACPRP
shrunken log2 fold change: 0.0189

RRIRSRPPRLPRPRPRPWAGPRP
shrunken log2 fold change: -0.255

RRIRSRPPRLPRPRPRPWAQPRP
shrunken log2 fold change: -0.0414

RRIRSRPPRLPRPRPRPWCNPRP
shrunken log2 fold change: -0.116

RRIRSRPPRLPRPRPRPWDKPRP
shrunken log2 fold change: -0.252

RRIRSRPPRLPRPRPRPWDMPRP
shrunken log2 fold change: -0.254

RRIRSRPPRLPRPRPRPWEYPRP
shrunken log2 fold change: -0.0607

RRIRSRPPRLPRPRPRPWFCPRP
shrunken log2 fold change: -0.439

RRIRSRPPRLPRPRPRPWFMPRP
shrunken log2 fold change: -0.86

RRIRSRPPRLPRPRPRPWGCPRP
shrunken log2 fold change: 0.032

RRIRSRPPRLPRPRPRPWGHPRP
shrunken log2 fold change: 0.109

RRIRSRPPRLPRPRPRPWHWPRP
shrunken log2 fold change: 0.211

RRIRSRPPRLPRPRPRPWIEPRP
shrunken log2 fold change: -0.0567

RRIRSRPPRLPRPRPRPWLQPRP
shrunken log2 fold change: -0.0695

RRIRSRPPRLPRPRPRPWLSPRP
shrunken log2 fold change: -0.00679

RRIRSRPPRLPRPRPRPWMNPRP
shrunken log2 fold change: -0.267

RRIRSRPPRLPRPRPRPWNLPRP
shrunken log2 fold change: -1.05

RRIRSRPPRLPRPRPRPWPWPRP
shrunken log2 fold change: 0.0913

RRIRSRPPRLPRPRPRPWQRPRP
shrunken log2 fold change: 0.074

RRIRSRPPRLPRPRPRPWRWPRP
shrunken log2 fold change: 0.124

RRIRSRPPRLPRPRPRPWTKPRP
shrunken log2 fold change: -0.137

RRIRSRPPRLPRPRPRPWWFPRP
shrunken log2 fold change: 0.0202

RRIRSRPPRLPRPRPRPWWHPRP
shrunken log2 fold change: -0.166

RRIRSRPPRLPRPRPRPWYIPRP
shrunken log2 fold change: -0.314

RRIRSRPPRLPRPRPRPYAEPRP
shrunken log2 fold change: -0.235

RRIRSRPPRLPRPRPRPYCGPRP
shrunken log2 fold change: -0.726

RRIRSRPPRLPRPRPRPYFPPRP
shrunken log2 fold change: -0.694

RRIRSRPPRLPRPRPRPYGGPRP
shrunken log2 fold change: -0.608

RRIRSRPPRLPRPRPRPYIQPRP
shrunken log2 fold change: -1.18

RRIRSRPPRLPRPRPRPYKRPRP
shrunken log2 fold change: -0.618

RRIRSRPPRLPRPRPRPYKTPRP
shrunken log2 fold change: -0.0144

RRIRSRPPRLPRPRPRPYLGPRP
shrunken log2 fold change: -0.204

RRIRSRPPRLPRPRPRPYLVPRP
shrunken log2 fold change: -0.123

RRIRSRPPRLPRPRPRPYMDPRP
shrunken log2 fold change: -0.326

RRIRSRPPRLPRPRPRPYMLPRP
shrunken log2 fold change: -0.981

RRIRSRPPRLPRPRPRPYMPPRP
shrunken log2 fold change: -1.04

RRIRSRPPRLPRPRPRPYMVPRP
shrunken log2 fold change: -0.497

RRIRSRPPRLPRPRPRPYPAPRP
shrunken log2 fold change: -0.559

RRIRSRPPRLPRPRPRPYQCPRP
shrunken log2 fold change: -0.00419

RRIRSRPPRLPRPRPRPYWDPRP
shrunken log2 fold change: -0.321

RRIRSRPPRLPRPRPRPYWLPRP
shrunken log2 fold change: -0.248

RRIRSRPPRLPRPRPRPYYAPRP
shrunken log2 fold change: -0.551

RRIRSRPPRLPRPRPRPYYVPRP
shrunken log2 fold change: -0.274

RRIRTRPPRLPRPRPRPAAGPRP
shrunken log2 fold change: 0.375

RRIRTRPPRLPRPRPRPAAYPRP
shrunken log2 fold change: -0.000154

RRIRTRPPRLPRPRPRPADKPRP
shrunken log2 fold change: -0.257

RRIRTRPPRLPRPRPRPAEAPRP
shrunken log2 fold change: 0.148

RRIRTRPPRLPRPRPRPAEQPRP
shrunken log2 fold change: 0.0493

RRIRTRPPRLPRPRPRPAIHPRP
shrunken log2 fold change: -0.384

RRIRTRPPRLPRPRPRPAIPPRP
shrunken log2 fold change: -0.212

RRIRTRPPRLPRPRPRPAISPRP
shrunken log2 fold change: 0.09

RRIRTRPPRLPRPRPRPAKFPRP
shrunken log2 fold change: -0.00176

RRIRTRPPRLPRPRPRPAMKPRP
shrunken log2 fold change: -0.125

RRIRTRPPRLPRPRPRPANEPRP
shrunken log2 fold change: -0.226

RRIRTRPPRLPRPRPRPANMPRP
shrunken log2 fold change: -0.291

RRIRTRPPRLPRPRPRPANQPRP
shrunken log2 fold change: -0.102

RRIRTRPPRLPRPRPRPANSPRP
shrunken log2 fold change: -0.119

RRIRTRPPRLPRPRPRPANYPRP
shrunken log2 fold change: -0.145

RRIRTRPPRLPRPRPRPAPSPRP
shrunken log2 fold change: 0.231

RRIRTRPPRLPRPRPRPAQYPRP
shrunken log2 fold change: 0.105

RRIRTRPPRLPRPRPRPARAPRP
shrunken log2 fold change: 0.786

RRIRTRPPRLPRPRPRPATHPRP
shrunken log2 fold change: -0.152

RRIRTRPPRLPRPRPRPATVPRP
shrunken log2 fold change: 0.0426

RRIRTRPPRLPRPRPRPAWLPRP
shrunken log2 fold change: -0.0636

RRIRTRPPRLPRPRPRPAWRPRP
shrunken log2 fold change: 0.594

RRIRTRPPRLPRPRPRPAYKPRP
shrunken log2 fold change: 0.0328

RRIRTRPPRLPRPRPRPAYPPRP
shrunken log2 fold change: -0.072

RRIRTRPPRLPRPRPRPAYVPRP
shrunken log2 fold change: -0.27

RRIRTRPPRLPRPRPRPCAAPRP
shrunken log2 fold change: 0.0451

RRIRTRPPRLPRPRPRPCCPPRP
shrunken log2 fold change: -0.305

RRIRTRPPRLPRPRPRPCFEPRP
shrunken log2 fold change: -0.0858

RRIRTRPPRLPRPRPRPCHCPRP
shrunken log2 fold change: -1.43

RRIRTRPPRLPRPRPRPCHHPRP
shrunken log2 fold change: -0.0688
